This data set concerns the molecule itself. Description: crystal structure; sitting drop vapor diffusion at 18 °C; 25% (w/v) PEG 3350, 0.1 M Bis-Tris pH 5.6, 0.1 M ammonium sulfate; resolved to 2.0 Å.

B1: Rv2466c C22S mutant (enzyme)
chain: not shown
For the protein B1, the binding result is on record as “binds”.

Source of the values: PMC5952258 (ACS Infectious Diseases, 2018).
